Results: the nanobody polyreactivity screen of Harvey et al. (2022)

Assay: yeast display, Sf9 membrane polyspecificity reagent, FACS + sequencing; frameworks hold sequencing errors
In short: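 A nanobody's polyreactivity label depends on the gate it was sorted from. Yeast display cells were stained with 10% biotinylated, detergent-solubilized Sf9 membrane reagent for 1 hour at 4 °C, enriched on streptavidin microbeads and sorted by FACS. The low and high (top ~1%) gates were set on anti-HA fluorescence for expression and streptavidin fluorescence for reagent binding.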

Sequence	polyreactivity (PSR sort gate)
QVQLVESGGGLVQSGGSLRLSCAASGLTFLNNALGWYRQAPGKERELVAAISDGGSPNYADSVKGRFTISRDNAKNTVFLQMNSLKPEDTAVYYCAAVYTSASYGSWGQGTQVTVSS	low polyreactivity
QVQLVESGGGLVQAGGSLRLSCAASGRTFRYYAMGWYRQAPGKERELVAAITSNGGSTYYADSVKGRFTISRDNAKNTVYLQMNSLKPEDTAVYYCNALASRGKYGFDYWGQGTQVTVSS	high polyreactivity
QFQLVETGGGLVQAGGSLRLSCAASGITFVRYAMGWYSQAPGKERELVAGISRGGSTNYADSVKGRFTISRDNAKNTVYLQMNSLKPEDTAVYYCNRANSFFDTHTLQFYYWGQGTQVTVSS	high polyreactivity
QVQLVESGGGLVQAGGSLRLSCAASGSIFFHNAMGWYRQAPGKERELVAAITSSGGRTYYADSVKGRFTISRDNAKNTVYLQMNSLKPEDTAVYYCDASPYGFRRNYYWGQGTQVTVSS	high polyreactivity
QVQLVESGGGLVQAGGSLRLSCAASGSIFGTNTMGWYRQAPGKERELVAAIRLSDSSTYYADSVKGRFTISRDNAKNSFYLQMNSLKPVDTAVYYCAVDYRAYHYYRYDYWGQGTQVTVSS	low polyreactivity
QVQLVESGGGLVQAGGSLRLSCAASGFTLDYYAMGLYRQAPGKERELVAAITSGSITYYADSVKGRFTISRDNAKNTVYLQMNSLKPEDTAVYYCAAVGLVRYGYWGQGTQVTVSS	high polyreactivity
QVQLVESGGGLVQAGGSLRLSCAASGSTFGRYAMGWYRQAPGKERELVAAITTSGGRTRYADSVKGRFTISRDNAKNPVYLQMNSLKPEDTAVYYCAASGAQGPDYDYWGQGTQVTVSS	low polyreactivity
QVQLVESGGGLVQAGGSLRLSCAASGSTFVRYAMGWYRQAPGKERELVAAITWSGGITYYADSVKGRFTISRDNAKNTVYLQMNSLKPEDTAVYYCNAEQKQYEKSYDYWGQGTQVTVSS	low polyreactivity
QVQLVESGGGLVQAGGSLRLSCAASGSIFLRYAMGWSRQARGKERELVAAITSSGRTNYADPVKGRFTISRDNAKNTVYLQMNSLKPEDTAVYYCAAVSYRQGVYRRNRYYYWGQGTQVTVSS	high polyreactivity
QVQLLESGVGLVQAGGSLRLSCAASGTIFVDYAMGWYRQAPGKERQLVAAITSVGRTNYADSVKGRFTISRDNAKNTVYLQMNSLKPEDTAVYYCNKTRYTNYYTTTFDYWGQGTQVTVSS	low polyreactivity
QVQLVESGGGLVQAGGSLRLSCAASGRIFSSYAMGWYRQEPGKERELVAAISRSGARTYYADSVKGRFTISRDNAKNTVYLQMNSLKPEDTAVYYCAAVTVAGYDYWGQGTQVTVSS	high polyreactivity
QVQLVESGGGLVQAGGSLRLSCAASGFTFEYYAMGWFRQAPGKERELVATITSGGSTYYADSVKGRFTISRDNAKNTVYLQMNSLKPEDTAVYDCNTSSPWIEDYWGQGTQVTVSS	low polyreactivity
QVQLVESGGGLVQAGGSLRLSCAASGFTFVYYAKGWYRQAPGKERELVATISGNGGRTYYADSVKGRFTISRDNAKNTVYLQMNSLKPEDTAVYYCAALLYIRSVGYDYWGQGTQVTVSS	low polyreactivity
QVQLVESGGGLVQAGGGRRGSGAAAGSIFAWYAMGWYRQAPGTERELVATITWSGGSTYYADSVKGRFTISRDIAKNTVYLQMNSLKREDTAVYYCAAEVVGIWYDLWYQGDYWGQGTQVTVSS	low polyreactivity
QVQLVESGGGLFQAVGSLRLSCAASGSTFIPNAMGWYRQAPGKERELVADISYSGGTTYYADSVKGRFTISRDNAKKTVYLQMNSLKPEDTSVYYCAAVYYTSFYSWPPYDYWGQGTQVTVSS	low polyreactivity
QVQLVESGGGLVQAGGSLRLSCAASGAIFVAYAMGWYRQAPGKDRELVAAITYSAGSTYYADSVKGRFTISRDNAKNTVYLQMNSLKPEDTAVYYCAADALVYSFIGYEYWGQGTQVTLSS	low polyreactivity

Sequence	polyreactivity (PSR sort gate)
PVQLVESGGGLVQAGGSLRLSCAASGSIFTAYDMGWYRQAPGKERELVAAINVSAGTTYYADSVKGRFTISRDNAKKTVYLQMISLIPEDTAVYYCAARDISLNAVGLPKEYNRDYWGQGTQVTVSS	low polyreactivity
QDQLVESGGGLVQAGGSLRLSCAASGSIFSTYAMGWYRQAPGKERELVAAIDGSGGSTYADSVKGRFTISRDNAKNTVYLQMNSLKPEDTAVYYCAVDSFLVYSAVRPYDYWGQGTQVTVSS	low polyreactivity
QVQLVESGGGLVQAGGSLRLSCAASGFIFYRYAMGWYRQQPGKERELVAAISSRGGTTYYADSVKWRFTISRDNAKNTVYLQMNSLKPEDTAVYYCAADRGYKMGYWLQGTQVTVSS	high polyreactivity
QVQLVESGGGLVQAGGSLRLSCAPSGIIFRIYAMGWYRQAPGKEREFVAAISGSGDSTYYADSVKGRFTISRDNAKNTVYLQMNSLKPEDTAVYYCAADWTLVYYHEDYWGQGSQVTVSS	high polyreactivity
QVQLVESGGGLVQAGGSLRLSCAASGFTQEDYTMGWYRQAPGQERELVARITSGGSTNYADSVKGRFTISRDNGKNTDYLQMNSLKADETAVYYCNARYAWINMDYWGQGTQVTVSS	low polyreactivity
QVQLVESGGGLVQAGGSLRLSCAASGSIFGSYTMGWYRQAPGKERELVAAISLGGGSTYYADSVKGRFTISRDNAKNTVYLQMNSLKPEDTAVYYCAAVQIVSGTYDYYWGQGTQVTVSS	low polyreactivity
QVQLVESGGGLVQAGGSLRLSCAASGSIDGYAMGWYRQAPGKERELVAAISKGGGNTYYADSVKGRFTISRDNAKNTVYLQMNSLKPEDTAVYYCAARRQIIWGQGTQVTVSS	high polyreactivity
QVQLVESGAGLFQAGGSLRLTCAPSGSIFAFNTMGLYRQAPGKERHLVAAITWGGGSTYYADSVKGRFTISRDNAKNTVYLQMYSLKPEDTAVYYCATKAKYGRQFLMEYWGQGTQVTVSS	high polyreactivity
QVQLVESGGGLVQAGGSLRLSCAASGSIITDYAMGWYRQAPGKERELVATITDSGGSTYYADSVKGRFTISRDNAKNTVYLQMNSLKPEDTAVYYCAADRIHSVTRYDYDYWGQGTQVTVSS	low polyreactivity
QVQLVESGGGLVQAGGSLRLSCAASGFTFVAYAMGWYRQAPGKERELVAAISRRGGPTYYADSVKGRFTISRDNAKYTVYLQMNSLKAEDTAVYYCAAGWKAFDQRRTGRLIRLLGQGTQVTVSS	high polyreactivity
QVQLVESGGGLVQAGGSLRLSCAASGRTFAQYAMGWYRQAPGKERELVAAITKRGGTTYYADSVKGRFTISRDNAKNTVYLQMNSLKPEDTAVYYCKAGGVVPSTYYWGQGTQVTVSS	high polyreactivity
QVQLVESGGGLVQAGGSLRLSCAASGSIFSYNAMGGYRPAPGKARELVAAITLSDGGTYYADSVKGRFTISRDNAKNTVYLQMNSLKPEDTAVYYCATTYWLWITYSAYYYWGQGSQVTVSS	low polyreactivity
QVQLVESGGGLVQAGGSLRLSCAASGRTFRYNTMGWYRQAPGKERELVARINWSGGSTYYADSVKGRFTISRDNAKNTVYLQMNSLKPEDTAVYYCAAVPILVYRWFQSYTGDYDYWGQGTQVTVSS	low polyreactivity
QVQLVESGGGLVQAGGSLRLSCAASGRTFGFNAMGWYRQAPGKARELVAAISSSSSSTYYADSVKGRFTISRDNAKNTVYLQMNSLKPEDTAVYYCAKQEPYPFGGYYEYDYWGQGTQVTVSS	low polyreactivity
QVQHVESGGGLVQAGGSLRLSCAASGSIFRYNARGWYRQAPGKERELVAAISSSGGRTYYADSVKGRFTISRDNAKNTVYLQMNSLKPEDTAVYYCATADTRRFTYGYYYWGQGTQVTVSS	high polyreactivity
QVQLVESGGGLVQAGGSLRLSCASSGRTFRRYARGWYRQAPGKERELVATIRSGDNTNYADSVKGRFTISRDNAKNTVYLQMNSLKPEDTAVYYCNRSPKSGQVTYLYSVNAHYDYWGQGTQVTVSS	low polyreactivity
